Where a chain is given by its changes, count along the chain named.
B1: humanized scFv 16-19-B11-sc01 (CDR graft) (scFv)
scFv: MDIQMTQSPSSLSASVGDRVTITCQASESISSWLAWYQQKPGKAPKLLIYKASTLASGVPSRFSGSGSGTDFTLTISSLQPEDFATYYCQGYYLDSSVDDNVFGGGTKLTVLGGGGGSGGGGSGGGGSGGGGSEVQLVESGGGLVQPGGSLRLSCAASGIDFSTYGISWVRQAPGKGLEWIGYIYPDYGITDYASWVNGRFTISRDNSKNTVYLQMNSLRAEDTAVYYCARSGSYYSRGWGAHYFNLWGQGTLVTVSS
B2: humanized scFv 16-19-B11-sc06 (structural graft) (scFv)
scFv: B1 scFv with T23N, A44R, F72Y, G182A, R205L, S208A, K209Q
B3: humanized scFv 16-19-B11-sc02 (structural graft) (scFv)
scFv: B1 scFv with T23N, D71E, S78G, E82A, A156K, G182A, R205L

Tests used:
[1] = molecular target: recombinant Cynomolgus monkey TNFα (Cynomolgus monkey (Macaca fascicularis), UniProt P79337 77-233); assay: cell-based or functional assay
Rhesus monkey TNFα = Rhesus monkey TNFα (Rhesus monkey (Macaca mulatta), UniProt P48094 77-233); assay: cell-based or functional assay
recombinant human TNFα [2] = molecular target: T1, recombinant human TNFα (human, UniProt P01375 77-233); assay: cell-based or functional assay
recombinant human TNFα [3] = molecular target: T1, recombinant human TNFα; assay: SPR (MASS-1), human TNFα immobilised, scFv injected; screening with 90 nM of scFv
Method: (§1) In a second step, for the best performing scFvs, Single Injection Cycle Kinetics (SiCK) were measured from a single injection cycle by simultaneously injecting six analyte samples at different concentrations into each of the eight parallel channels in the MASS-1 system. […] The apparent dissociation (kd) and association (kₐ) rate constants and the apparent dissociation equilibrium constant (KD) were calculated with the MASS-1 analysis software (Analyzer, Sierra Sensors) using one-to-one Langmuir binding model and quality of the fits was monitored based on Chi², which is a measure for the quality of the curve fitting. The smaller the value for the Chi² the more accurate is the fitting to the one-to-one Langmuir binding model. For affinity screenings, results were deemed valid if the Chi² was below 10 for the concentration analyzed. In cases where several scFv concentrations were analyzed, results were deemed valid if the average Chi² over all the concentrations tested was below 10.

recombinant human TNFα [4] = molecular target: T1, recombinant human TNFα; assay: SPR (MASS-1), human TNFα immobilised, two-fold serial dilutions of scFv injected
Method: Affinity was determined using 2-fold serial dilutions of the respective scFvs.
as §1

T1 sequence (P01375 77-233 limits assumed): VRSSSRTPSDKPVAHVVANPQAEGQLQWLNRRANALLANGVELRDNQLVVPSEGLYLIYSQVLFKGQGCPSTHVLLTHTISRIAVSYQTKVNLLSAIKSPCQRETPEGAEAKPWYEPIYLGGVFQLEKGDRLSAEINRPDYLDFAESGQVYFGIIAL
recombinant Cynomolgus monkey TNFα, sequence (P79337 77-233 limits assumed): as the sequence (P01375 77-233 limits assumed) above, with L37V, R44T, T72N, R138L counted along it
Rhesus monkey TNFα, sequence (P48094 77-233 limits assumed): as the sequence (P01375 77-233 limits assumed) above, with R44T, T72N, R138L counted along it

Row | Binder | Species specificity in L929 assay IC50 (ng/ml), cyno [1] [ng/mL] | Species specificity in L929 assay IC50 (ng/ml), rhesus (Rhesus monkey TNFα) [ng/mL] | Neutralization of TNF in L929 assay, rel. IC50 (IC50, Infliximab (ng/ml)/IC50, scFv (ng/ml)) (recombinant human TNFα [2]) [ratio] | Neutralization of TNF in L929 assay, rel. IC90 (IC90, Infliximab (ng/ml)/IC90, scFv (ng/ml)) (recombinant human TNFα [2]) [ratio] | Species specificity in L929 assay IC50 (ng/ml), human (recombinant human TNFα [2]) [ng/mL] | Kd (recombinant human TNFα [3]) [pM] | koff (recombinant human TNFα [3]) [s⁻¹] | kon (recombinant human TNFα [3]) [M⁻¹ s⁻¹] | Kd (recombinant human TNFα [4]) [pM] | koff (recombinant human TNFα [4]) [s⁻¹] | kon (recombinant human TNFα [4]) [M⁻¹ s⁻¹]
1 | B1 | 92.1 | 59.7 | 0.6 | 0.2 | 12.1 | 700 | 0.00048 | 680000 |  |  | 
2 | B2 | 1.8 | 1 | 16.2 | 15 | 0.4 |  |  |  | 59 | 5.8e-05 | 970000
3 | B3 |  |  | 94 | 4.5 | 0.8 | 220 | 0.00016 | 730000 |  |  | 
